According to publication PMC4622719:
Read-outs that look alike come from different tables or passages of the source.

How the values were obtained:
[1] = biological target: human neonatal Fc receptor (human) (UniProt P55899); assay: SPR
adalimumab (human) [2] = assay: BLI
adalimumab (human) [3] = assay: BLI; remark: listed apart in the source

UniProt P55899, sequence (P55899 24-297): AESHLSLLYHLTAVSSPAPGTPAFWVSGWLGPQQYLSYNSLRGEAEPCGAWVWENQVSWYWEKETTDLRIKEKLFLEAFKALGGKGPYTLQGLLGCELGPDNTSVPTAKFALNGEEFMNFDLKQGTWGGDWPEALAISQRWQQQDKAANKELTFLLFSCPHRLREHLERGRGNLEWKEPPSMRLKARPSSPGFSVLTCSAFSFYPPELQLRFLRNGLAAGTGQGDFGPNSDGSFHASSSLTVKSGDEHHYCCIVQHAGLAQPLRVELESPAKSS

KD1 [1] [nM]	KD2 [1] [nM]	ka1 [1] [M⁻¹ s⁻¹]	ka2 [1] [M⁻¹ s⁻¹]	kd1 [1] [s⁻¹]	kd2 [1] [s⁻¹]	koff (adalimumab (human) [2]) [s⁻¹]	Kd (adalimumab (human) [3]) [pM]	koff (adalimumab (human) [3]) [s⁻¹]	kon (adalimumab (human) [3]) [M⁻¹ s⁻¹]	Substance
8.77	467	906000	362000	0.0073	0.141					adalimumab (antibody)
						4.81e-05	4.6	5.5e-06	1.32e+06	recombinant human tumor necrosis factor (from UniProt P01375 77-233) (ligand)
